Reference: the supplement of paper PMC10567573

B1: TPD52L1 (parent)
chain: ISKKFGDMSYSIRHSISMPAMRNS

Variants of: B1
Experiment: protein stability index of a GFP-peptide fusion (GPS, HEK-293T) (PSI 1-6); higher = more stable
Settings: c terminus: a fixed tail appended
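Also: lentivirally expressed fusions sorted by FACS into six bins by GFP to DsRed ratio, PSI derived from sequencing read proportions per bin multiplied by bin number.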

| Variant | protein stability index |
| --- | --- |
| ISKKFGDMKYSIRHSISMPAMRNS | 2.37 |
| ISKKFGDMRYSIRHSISMPAMRNS | 2.22 |
| ISKKFGDMPYSIRHSISMPAMRNS | 2.03 |
| ISKKFGDMAYSIRHSISMPAMRNS | 2.23 |
| ISKKFGDMTYSIRHSISMPAMRNS | 2 |
| ISKKFGDMNYSIRHSISMPAMRNS | 2.36 |
| ISKKFGDMSYSIRHSCSMPAMRNS | 2.02 |
| ISKKFGDMSYSIRHSDSMPAMRNS | 2.6 |
| ISKKFGDMSYSIRHSSSMPAMRNS | 2.77 |
| ISKKFGDMSYSIRHSWSMPAMRNS | 1.97 |
| ISKKFGDMSYSIRHSHSMPAMRNS | 2.36 |
| ISKKFGDMSYSIRHSFSMPAMRNS | 1.61 |
| ISKKFGDMSYSIRHSMSMPAMRNS | 2.9 |
| ISKKFGDMSYSIRHSPSMPAMRNS | 2.99 |
| ISKKFGDMSYSIRHSNSMPAMRNS | 2.61 |
| ISKKFGDMSYCIRHSISMPAMRNS | 1.88 |
| ISKKFGDMSYPIRHSISMPAMRNS | 2.58 |
| ISKKFGDMSYQIRHSISMPAMRNS | 2.22 |
| ISKKFGDMSYGIRHSISMPAMRNS | 2.52 |
| ISKKFGDMSYFIRHSISMPAMRNS | 1.91 |
| ISKKFGDMSYNIRHSISMPAMRNS | 2.74 |
| ISKKFGDCSYSIRHSISMPAMRNS | 1.96 |
| ISKKFGDHSYSIRHSISMPAMRNS | 2.33 |
| ISKKFGDPSYSIRHSISMPAMRNS | 3.46 |

| Variant | protein stability index |
| --- | --- |
| ISKKFGDDSYSIRHSISMPAMRNS | 2.78 |
| ISKKFGDESYSIRHSISMPAMRNS | 3.18 |
| ISKKFGDASYSIRHSISMPAMRNS | 2.87 |
| ISKKFGDQSYSIRHSISMPAMRNS | 2.85 |
| ISKKFGDMSYSQRHSISMPAMRNS | 2.27 |
| ISKKFGDMSYSVRHSISMPAMRNS | 2.28 |
| ISKKFGDMSYSKRHSISMPAMRNS | 2.56 |
| ISKKFGDMSYSLRHSISMPAMRNS | 2.71 |
| ISKKFGDMSYSMRHSISMPAMRNS | 2.44 |
| ISKKFGDMSYSARHSISMPAMRNS | 2.55 |
| ISKKFGDMSYSTRHSISMPAMRNS | 2.83 |
| ISKKFGDMSYSGRHSISMPAMRNS | 2.4 |
| ISKKFGDMSYSIRHSIYMPAMRNS | 1.98 |
| ISKKFGDMSYSIRHSIRMPAMRNS | 2.17 |
| ISKKFGDMSYSIRHSIKMPAMRNS | 2.13 |
| ISKKFGDMSYSIRHSILMPAMRNS | 1.8 |
| ISKKFGDMSYSIRHSIFMPAMRNS | 2.13 |
| ISKKFGDMSYSIRHSICMPAMRNS | 1.92 |
| ISKKFGDMSYSIRHSIIMPAMRNS | 2.03 |
| ISKKFGDMSYSIRHSIWMPAMRNS | 1.27 |
| ISKKFGDMSYSIRHSIQMPAMRNS | 2.48 |
| ISKKFGDMSYSIRHSITMPAMRNS | 2.11 |
| ISKKFGDMSYSIRHSIPMPAMRNS | 2.28 |
| ISKKFGDMSYSIRHSISMPAMRNM | 1.82 |

| Variant | protein stability index |
| --- | --- |
| ISKKFGDMSYSIRHSISMPAMRNI | 1.81 |
| ISKKFGDMSYSIRHSISMPAMRNF | 1.57 |
| ISKKFGDMSYSIRHSISMPAMRNW | 1.44 |
| ISKKFGDMSYSIRHSISMPAMRNN | 2.33 |
| ISKKFGDMSYSIRHSISKPAMRNS | 2.31 |
| ISKKFGDMSYSIRHSISGPAMRNS | 2.42 |
| ISKKFGDMSYSIRHSISPPAMRNS | 2.64 |
| ISKKFGDMSYSIRHSISYPAMRNS | 1.87 |
| ISKKFGDMSYSIRHSISIPAMRNS | 2.53 |
| ISKKFGDMSYSIRHSISFPAMRNS | 1.8 |
| ISKKFGDMSYSIRHSISLPAMRNS | 2.01 |
| ISKKFGDMSYSIRHSISTPAMRNS | 2.58 |
| ISKKFGDMSYSIRHSISDPAMRNS | 2.88 |
| IAKKFGDMSYSIRHSISMPAMRNS | 2.41 |
| ILKKFGDMSYSIRHSISMPAMRNS | 2.97 |
| IWKKFGDMSYSIRHSISMPAMRNS | 1.83 |
| INKKFGDMSYSIRHSISMPAMRNS | 2.37 |
| IPKKFGDMSYSIRHSISMPAMRNS | 2.89 |
| IVKKFGDMSYSIRHSISMPAMRNS | 2.34 |
| ISKKFGDMSYSIRHLISMPAMRNS | 1.83 |
| ISKKFGDMSYSIRHFISMPAMRNS | 1.42 |
| ISKKFGDMSYSIRHEISMPAMRNS | 3.28 |
| ISKKFGDMSYSIRHYISMPAMRNS | 1.51 |
| ISKKFGDMSYSIRHQISMPAMRNS | 2.5 |

| Variant | protein stability index |
| --- | --- |
| ISKKFGDMSYSIRHTISMPAMRNS | 1.88 |
| ISKKFGDMSYSIRHDISMPAMRNS | 1.92 |
| ISKKFGDMSYSIRHMISMPAMRNS | 1.91 |
| ISKKFGDMSYSIRHPISMPAMRNS | 2.43 |
| ISKKFGDMSYSIRHSISMPAMENS | 2.18 |
| ISKKFGDMSYSIRHSISMPAMNNS | 2.79 |
| ISKKFGDMSYSIRHSISMPAMANS | 2.23 |
| ISKKFGDMSYSIRHSISMPAMKNS | 2.75 |
| ISKKFGDMSYSIRHSISMPAMCNS | 1.97 |
| ISKKFGDMSYSIRHSISMPAMQNS | 2.3 |
| ISKKFGDMSYSIRHSISMPAMFNS | 2.22 |
| ISKKFGDMSYSIRHSISMPAMLNS | 1.82 |
| ISKKWGDMSYSIRHSISMPAMRNS | 2.5 |
| ISKKDGDMSYSIRHSISMPAMRNS | 2.46 |
| ISKKCGDMSYSIRHSISMPAMRNS | 2.26 |
| ISKKEGDMSYSIRHSISMPAMRNS | 3.06 |
| ISKKPGDMSYSIRHSISMPAMRNS | 2.85 |
| ISKKRGDMSYSIRHSISMPAMRNS | 2.45 |
| ISKKGGDMSYSIRHSISMPAMRNS | 3.29 |
| ISKKKGDMSYSIRHSISMPAMRNS | 2.44 |
| ISKKQGDMSYSIRHSISMPAMRNS | 2.78 |
| ISKKTGDMSYSIRHSISMPAMRNS | 2.24 |
